Assay results from patent US20130236458A1 (AbbVie / Abbott, published 2013).
One block for each binder: values may come before it.

How the values were obtained:
[1] = target: T1, Recombinant Human IL-13 (human, UniProt P35225 35-146, limits assumed); test: SPR (Biacore)
T1 construct: bought reagent
Summary of the method: (§1)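 Antibodies or DVD-Ig captured on anti-mouse IgG (Fcγ) CM5 surface; antigen injected at 10–200 nM in HBS-EP, pH 7.4, 25 °C, 25 µL/min. kon and koff from global 1:1 Langmuir fit; KD = koff/kon.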

[2] = target: T2, Recombinant Human IL-17 (human, UniProt Q16552 20-155, limits assumed); test: SPR (Biacore)
T2 construct: bought reagent; also called IL-17A
T2 sequence (looked up): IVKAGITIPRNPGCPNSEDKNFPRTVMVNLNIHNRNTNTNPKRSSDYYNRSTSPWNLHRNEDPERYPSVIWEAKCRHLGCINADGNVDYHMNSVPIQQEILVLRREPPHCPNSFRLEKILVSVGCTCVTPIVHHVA
Summary of the method: as §1

[3] = target: T1, Recombinant Human IL-13; test: cell-based or functional assay
[4] = target: T2, Recombinant Human IL-17; test: cell-based or functional assay

T1 sequence (P35225 35-146 limits assumed): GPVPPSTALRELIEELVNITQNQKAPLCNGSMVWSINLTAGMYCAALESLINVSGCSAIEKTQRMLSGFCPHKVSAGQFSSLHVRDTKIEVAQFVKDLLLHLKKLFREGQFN

Kd [1]: 0.17 nM
koff [1]: 4.4e-05 s⁻¹
kon [1]: 260000 M⁻¹ s⁻¹
Kd [2]: 0.0046 nM
koff [2]: 1.2e-05 s⁻¹
kon [2]: 2.5e+06 M⁻¹ s⁻¹
C-Terminal VD IL13 Neutralization Assay IC50 [3]: 0.165 nM
N-Terminal VD IL17 Neutralization Assay IC50 [4]: 0.013 nM
B1: DVD2191 (bispecific antibody)
VH: EVQLVQSGAEVKKPGSSVKVSCKASGGSFGGYGIGWVRQAPGQGLEWMGGITPFFGFADYAQKFQGRVTITADESTTTAYMELSGLTSDDTAVYYCARDPNEFWNGYYSTHDFDSWGQGTTVTVSSASTKGPEVQLVQSGAEVKKPGASVKVSCKASGYTFTSYWMHWVRQAPGQGLEWIGNINPKGGSNIYNEKFQGRVTMTRDTSISTAYMELSRLRSDDTAVYYCARLDYFGDSFDLWGQGTTVTVSS
VL: EIVLTQSPDFQSVTPKEKVTITCRASQDIGSELHWYQQKPDQPPKLLIKYASHSTSGVPSRFSGSGSGTDFTLTINGLEAEDAGTYYCHQTDSLPYTFGPGTKVDIKRTVAAPDIQMTQSPSSLSASVGDRVTITCRASQGIRNYLNWYQQKPGKAPKLLIYYASNLEVGVPSRFSGSGSGTDYTLTISSLQPEDFATYYCQQDNRFPYTFGGGTKVEIKR
notes: DVD-Ig; also called DVD2191H; DVD2191L

Kd [1]: 0.021 nM
koff [1]: 5.7e-05 s⁻¹
kon [1]: 2.6e+06 M⁻¹ s⁻¹
Kd [2]: 0.038 nM
koff [2]: 3.4e-06 s⁻¹
kon [2]: 89000 M⁻¹ s⁻¹
N-Terminal VD IL13 Neutralization Assay IC50 [3]: 0.087 nM
C-Terminal VD IL17 Neutralization Assay IC50 [4]: 0.061 nM
B2: DVD2190 (bispecific antibody)
VH: EVQLVQSGAEVKKPGASVKVSCKASGYTFTSYWMHWVRQAPGQGLEWIGNINPKGGSNIYNEKFQGRVTMTRDTSISTAYMELSRLRSDDTAVYYCARLDYFGDSFDLWGQGTTVTVSSASTKGPEVQLVQSGAEVKKPGSSVKVSCKASGGSFGGYGIGWVRQAPGQGLEWMGGITPFFGFADYAQKFQGRVTITADESTTTAYMELSGLTSDDTAVYYCARDPNEFWNGYYSTHDFDSWGQGTTVTVSS
VL: DIQMTQSPSSLSASVGDRVTITCRASQGIRNYLNWYQQKPGKAPKLLIYYASNLEVGVPSRFSGSGSGTDYTLTISSLQPEDFATYYCQQDNRFPYTFGGGTKVEIKRTVAAPEIVLTQSPDFQSVTPKEKVTITCRASQDIGSELHWYQQKPDQPPKLLIKYASHSTSGVPSRFSGSGSGTDFTLTINGLEAEDAGTYYCHQTDSLPYTFGPGTKVDIKR
notes: DVD-Ig; also called DVD2190H; DVD2190L

Kd [1]: < 0.0091 nM
koff [1]: < 1e-06 s⁻¹
kon [1]: 110000 M⁻¹ s⁻¹
Kd [2]: 0.0089 nM
koff [2]: 1.5e-05 s⁻¹
kon [2]: 1.7e+06 M⁻¹ s⁻¹
C-Terminal VD IL13 Neutralization Assay IC50 [3]: 1.25 nM
N-Terminal VD IL17 Neutralization Assay IC50 [4]: 0.0013 nM
B4: DVD2185 (bispecific antibody)
VH: EVQLVQSGAEVKKPGSSVKVSCKASGYTFTDYEIHWVRQAPGQGLEWMGVNDPESGGTFYNQKFDGRVTLTADESTSTAYMELSSLRSEDTAVYYCTRYSKWDSFDGMDYWGQGTTVTVSSASTKGPEVQLVQSGAEVKKPGASVKVSCKASGYTFTSYWMHWVRQAPGQGLEWIGNINPKGGSNIYNEKFQGRVTMTRDTSISTAYMELSRLRSDDTAVYYCARLDYFGDSFDLWGQGTTVTVSS
VL: DIQMTQSPSSLSASVGDRVTITCRASSGIISYIDWFQQKPGKAPKRLIYATFDLASGVPSRFSGSGSGTDYTLTISSLQPEDFATYYCRQVGSYPETFGQGTKLEIKRTVAAPDIQMTQSPSSLSASVGDRVTITCRASQGIRNYLNWYQQKPGKAPKLLIYYASNLEVGVPSRFSGSGSGTDYTLTISSLQPEDFATYYCQQDNRFPYTFGGGTKVEIKR
notes: DVD-Ig; also called DVD2185H; DVD2185L

The next lines start with the binder.

B3: DVD2192 (bispecific antibody)
VH: B2 VH
VL: DIQMTQSPSSLSASVGDRVTITCRASQGIRNYLNWYQQKPGKAPKLLIYYASNLEVGVPSRFSGSGSGTDYTLTISSLQPEDFATYYCQQDNRFPYTFGGGTKVEIKRTVAAPSVFIFPPEIVLTQSPDFQSVTPKEKVTITCRASQDIGSELHWYQQKPDQPPKLLIKYASHSTSGVPSRFSGSGSGTDFTLTINGLEAEDAGTYYCHQTDSLPYTFGPGTKVDIKR
notes: DVD-Ig; also called DVD2192H; DVD2192L
Kd [1]: 0.035 nM
koff [1]: 5.1e-05 s⁻¹
kon [1]: 1.5e+06 M⁻¹ s⁻¹
Kd [2]: < 0.0038 nM
koff [2]: < 1e-06 s⁻¹
kon [2]: 260000 M⁻¹ s⁻¹
N-Terminal VD IL13 Neutralization Assay IC50 [3]: 0.056 nM
C-Terminal VD IL17 Neutralization Assay IC50 [4]: 0.015 nM

B5: DVD2187 (bispecific antibody)
VH: B4 VH
VL: DIQMTQSPSSLSASVGDRVTITCRASSGIISYIDWFQQKPGKAPKRLIYATFDLASGVPSRFSGSGSGTDYTLTISSLQPEDFATYYCRQVGSYPETFGQGTKLEIKRTVAAPSVFIFPPDIQMTQSPSSLSASVGDRVTITCRASQGIRNYLNWYQQKPGKAPKLLIYYASNLEVGVPSRFSGSGSGTDYTLTISSLQPEDFATYYCQQDNRFPYTFGGGTKVEIKR
notes: DVD-Ig; also called DVD2187H; DVD2187L
Kd [1]: 0.072 nM
koff [1]: 2.1e-05 s⁻¹
kon [1]: 290000 M⁻¹ s⁻¹
Kd [2]: < 0.00038 nM
koff [2]: < 1e-06 s⁻¹
kon [2]: 2.6e+06 M⁻¹ s⁻¹
C-Terminal VD IL13 Neutralization Assay IC50 [3]: 0.811 nM
N-Terminal VD IL17 Neutralization Assay IC50 [4]: 0.0016 nM

B6: DVD2189 (bispecific antibody)
VH: EVQLVQSGAEVKKPGSSVKVSCKASGYTFTDYEIHWVRQAPGQGLEWMGVNDPESGGTFYNQKFDGRVTLTADESTSTAYMELSSLRSEDTAVYYCTRYSKWDSFDGMDYWGQGTTVTVSSASTKGPSVFPLAPEVQLVQSGAEVKKPGASVKVSCKASGYTFTSYWMHWVRQAPGQGLEWIGNINPKGGSNIYNEKFQGRVTMTRDTSISTAYMELSRLRSDDTAVYYCARLDYFGDSFDLWGQGTTVTVSS
VL: B4 VL
notes: DVD-Ig; also called DVD2189H; DVD2189L
Kd [1]: 0.094 nM
koff [1]: 3.9e-05 s⁻¹
kon [1]: 410000 M⁻¹ s⁻¹
Kd [2]: < 0.0004 nM
koff [2]: < 1e-06 s⁻¹
kon [2]: 2.5e+06 M⁻¹ s⁻¹
C-Terminal VD IL13 Neutralization Assay IC50 [3]: 0.172 nM
N-Terminal VD IL17 Neutralization Assay IC50 [4]: 0.0017 nM

B7: DVD2183 (bispecific antibody)
VH: EVQLVQSGAEVKKPGESVKISCKASGGSFRSYGISWVRQAPGQGLEWMGGITHFFGITDYAQKFQGRVTITADESTTTAYMELSGLTSDDTAVYYCAREPNDFWNGYYDTHDFDSWGQGTTVTVSSASTKGPSVFPLAPEVQLVQSGAEVKKPGASVKVSCKASGYTFTTYGVSWVRQAPGQGLEWMGEIYPGNYNTYYNEKFRGRVTMTTDTSTSTAYMELRSLRSDDTAVYYCARWRTSYFSDYGYFDYWGQGTTVTVSS
VL: EIVLTQSPDFQSVTPKEKVTITCRASQNIGSELHWYQQKPDQSPKLLIKYASHSISGVPSRFSGSGSGTDFTLTINGLEAEDAATYYCHQSDTLPHTFGQGTKVDIKRTVAAPDVVMTQSPLSLPVTLGQPASISCRSSQSLVHSHGNTYLHWYQQRPGQSPRLLIYTVSNRFSGVPDRFSGSGSGTDFTLKISRVEAEDVGVYYCSQSTHVPYTFGGGTKVEIKR
notes: DVD-Ig; also called DVD2183H; DVD2183L
Kd [1]: < 0.0042 nM
koff [1]: < 1e-06 s⁻¹
kon [1]: 240000 M⁻¹ s⁻¹
Kd [2]: 0.015 nM
koff [2]: 3.6e-05 s⁻¹
kon [2]: 2.3e+06 M⁻¹ s⁻¹
C-Terminal VD IL13 Neutralization Assay IC50 [3]: 0.086 nM
N-Terminal VD IL17 Neutralization Assay IC50 [4]: 0.0125 nM
